Source: patent US20210128616A1

Target: CD19 (UniProt P15391)
Assay: cell-based or functional assay

Sequence of UniProt P15391 (P15391 20-291 limits assumed): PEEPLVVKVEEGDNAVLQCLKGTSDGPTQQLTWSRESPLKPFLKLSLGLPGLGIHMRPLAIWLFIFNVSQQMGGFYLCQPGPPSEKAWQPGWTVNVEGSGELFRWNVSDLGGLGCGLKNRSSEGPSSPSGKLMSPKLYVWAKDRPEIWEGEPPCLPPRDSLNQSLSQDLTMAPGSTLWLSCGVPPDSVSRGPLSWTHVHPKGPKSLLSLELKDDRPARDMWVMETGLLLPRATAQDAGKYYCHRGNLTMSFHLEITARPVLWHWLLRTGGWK

“anti-CD19 chimeric antigen receptor (CAR) with an anti-CD19 scFv derived from murine antibody FMC63 (VL-linker-VH orientation), an immunoglobulin-derived spacer, a CD28-derived transmembrane domain, a 4-1BB costimulatory region and a CD3-zeta intracellular signaling domain” showed a relative standard deviation among lots of a parameter indicative of TNFα production by CD4+ CAR+ T cells after stimulation with CD19 of 37% and a relative standard deviation among lots of a parameter indicative of TNFα production by CD8+ CAR+ T cells after stimulation with CD19 of 51%.
